To fix the notation:
B1: THE1Dmut (dsDNA)
DNA 1: CCTGTGGGAGGTACTCCTATGATGGAGGCAG
DNA 2: CTGCCTCCATCATAGGAGTACCTCCCACAGG
B2: TRIM48mut (dsDNA)
DNA 1: AGGAGTGATGATACTTTTATGAGCCGTGCAA
DNA 2: TTGCACGGCTCATAAAAGTATCATCACTCCT
B3: CSF1Rmut (dsDNA)
DNA 1: CCAGGTGGAGATACTTGTATGATGGGGGCAG
DNA 2: CTGCCCCCATCATACAAGTATCTCCACCTGG

In this series the target is DUX4-fl (Homo sapiens, UniProt Q9UBX2 SEQ:1-424). Put plainly: EMSA; cold mutant does not compete. As to conditions: tags: pCS2-DUX4-fl, TNT SP6 wheat germ. On the procedure: EMSA was performed with ³²P-labeled 31-bp oligonucleotides from endogenous genomic sequences containing the putative DUX4 binding site as probes (sequences below; only forward shown). Radiolabeled probes were incubated with in vitro translated protein generated from pCS2-DUX4-fl or pCS2-DUX4-s² vectors using the TNT SP6 Coupled Wheat Germ Extract System (Promega) according to manufacturer's instructions. To obtain supershift of protein-DNA complexes, 0.1 μg of E14-3 anti-DUX4 rabbit monoclonal antibody was added to the mixtures. For competition experiments, excess unlabeled probes of either wild-type or mutant sequences were included in the binding reaction. The gels were prepared and run as previously described (Knoepfler et al., 1999).
Chain of DUX4-fl (Q9UBX2 whole entry): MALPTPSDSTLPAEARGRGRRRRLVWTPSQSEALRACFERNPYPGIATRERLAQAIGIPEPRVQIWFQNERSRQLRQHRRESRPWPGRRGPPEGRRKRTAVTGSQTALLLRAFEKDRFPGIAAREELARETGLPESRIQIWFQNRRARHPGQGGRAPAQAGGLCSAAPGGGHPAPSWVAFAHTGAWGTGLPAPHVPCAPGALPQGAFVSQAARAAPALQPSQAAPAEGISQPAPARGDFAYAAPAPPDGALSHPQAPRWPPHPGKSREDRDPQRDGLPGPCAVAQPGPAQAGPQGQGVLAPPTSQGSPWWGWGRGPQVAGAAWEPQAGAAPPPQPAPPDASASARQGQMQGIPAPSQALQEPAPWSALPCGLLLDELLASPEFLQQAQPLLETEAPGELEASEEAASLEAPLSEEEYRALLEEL
Electrophoretic mobility shift assay (EMSA) confirmed that DUX4-fl binds the core motifs present in both MaLR-associated and non-repeat associated sites: TRIM48 oligos—the TAATTTAATCA (SEQ ID NO:169) core sequence found near the TRIM48 gene, CSF1R oligos—the TAATTGAATCA (SEQ ID NO:171) core sequence found within the LTR of a THE1B retroelement near the CSF1R gene, and THE1D oligos—the TAATCCAATCA (SEQ ID NO:172) core sequence found within the LTR of the THE1D retroelement. […] Because the DUX4-s alternative splice form retains the N-terminal DNA-binding homeodomains, the inventors hypothesized that it would bind to the same sites as DUX4-fl. EMSA confirmed that DUX4-s specifically binds the same core binding site as DUX4-fl in vitro.
For orientation: Mobility shift assays separate free from complexed probe on a gel.
For the molecule B1, the binding result is reported as “no binding”.

Regarding B2, the binding result is “no binding”.

Regarding B3, the binding result was “no binding”.

The values are drawn from US20140242093, “METHODS AND COMPOSITIONS FOR MODULATING THE INNATE IMMUNE RESPONSE AND/OR MYOGENESIS IN A MAMMALIAN SUBJECT” (FRED HUTCHINSON CANCER RESEARCH CENTER, published 2014).
